*: point of attachment. RhodamineB = CCN(CC)c1ccc2c(-c3ccccc3C(=O)*)c3ccc(=[N+](CC)CC)cc-3oc2c1; Ahx = NCCCCCC(=O)O
How the values were obtained:
[1] = biological target: Recombinant Bcl-XL protein (UniProt Q07817 1-211); experiment: fluorescence polarization assay
Protocol: (§1) In this example, the in vitro binding assay is a fluorescence polarization assay (FPA). For this experiment, full-length Bax protein was produced in bacteria and purified. […] The extent of peptide binding was then monitored by measuring polarization of monochromatic light passed through the sample, where peptide binding to the bulkier protein slows the rate of peptide tumbling in solution, enhancing the polarization effect.
(§2) Fluorescence Polarization Assays were performed as follows. […] Fluorescence polarization was measured using an AnalystTM AD Assay Detection System (LJL Biosystem, Sunnyvale, Calif.).

[2] = biological target: T1, purified recombinant full-length Bax protein (from E. coli BL21 harboring pTYB1-Bax) (human, UniProt Q07812 1-192); experiment: fluorescence polarization assay, various concentrations of purified recombinant Bax with 40 nM rhodamine-conjugated Humanin peptide
T1 construct: also called recombinant Bax
T1 sequence (Q07812 whole entry): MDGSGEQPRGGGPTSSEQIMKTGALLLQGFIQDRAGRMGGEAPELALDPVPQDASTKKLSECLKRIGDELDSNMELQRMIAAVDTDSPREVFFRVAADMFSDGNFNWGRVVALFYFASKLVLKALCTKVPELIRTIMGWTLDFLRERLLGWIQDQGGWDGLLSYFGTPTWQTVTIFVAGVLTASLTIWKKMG
Protocol: as §1, §2

[3] = biological target: T2, GFP-HN (Green Fluorescent Protein fused to wild-type, full-length Humanin, cytosolic / nuclear-encoded form) (human, UniProt P42212 1-238 = GFP); experiment: co-immunoprecipitation from HEK293T cells (anti-GFP IP, anti-myc blot)
T2 construct: Humanin cDNA in the XhoI/HindIII sites of GFP-C1 (pEGFP-C1), so GFP is N-terminal; also called GFP-HN(N); GFP-Humanin

Recombinant Bcl-XL protein, sequence (Q07817 1-211): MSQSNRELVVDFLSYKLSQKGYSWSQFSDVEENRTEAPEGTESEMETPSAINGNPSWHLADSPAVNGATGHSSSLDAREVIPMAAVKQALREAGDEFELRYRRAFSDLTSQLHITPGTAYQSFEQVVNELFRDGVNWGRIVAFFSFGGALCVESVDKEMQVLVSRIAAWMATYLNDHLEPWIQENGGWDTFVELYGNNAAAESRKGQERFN

B1: rhodamine-conjugated synthetic purified Humanin peptide (peptide)
peptide: {RhodamineB-Ahx}-MAPRGFSCLLLLTSEIDLPVKRRA-NH2
notes: also called rhodamine-HN; rhodamine-conjugated HN peptide
binding result [1]: no binding
Kd [2]: ~2 nM

B2: myc-tagged Bcl-B (from pcDNA3-myc) (other, UniProt Q9HD36 1-204, looked up, not shown: small tags and cut ends)
chain: MVDQLRERTTMADPLRERTELLLADYLGYCAREPGTPEPAPSTPEAAVLRSAAARLRQIHRSFFSAYLGYPGNRFELVALMADSVLSDSPGPTWGRVVTLVTFAGTLLERGPLVTARWKKWGFQPRLKEQEGDVARDCQRLVALLSSRLMGQHRAWLQAQGGWDGFCHFFRTPFPLAFWRKQLVQAFLSCLLTTAFIYLWTRLL
binding result [3]: no binding

B3: myc-tagged Bok (from pcDNA3-myc) (other, UniProt Q9UMX3 1-212, looked up, not shown: small tags and cut ends)
chain: MEVLRRSSVFAAEIMDAFDRSPTDKELVAQAKALGREYVHARLLRAGLSWSAPERAAPVPGRLAEVCAVLLRLGDELEMIRPSVYRNVARQLHISLQSEPVVTDAFLAVAGHIFSAGITWGKVVSLYAVAAGLAVDCVRQAQPAMVHALVDCLGEFVRKTLATWLRRRGGWTDVLKCVVSTDPGLRSHWLVAALCSFGRFLKAAFFVLLPER
binding result [3]: no binding

B4: myc-tagged Bak (from pcDNA3-myc) (other, UniProt Q16611 1-211, looked up, not shown: small tags and cut ends)
chain: MASGQGPGPPRQECGEPALPSASEEQVAQDTEEVFRSYVFYRHQQEQEAEGVAAPADPEMVTLPLQPSSTMGQVGRQLAIIGDDINRRYDSEFQTMLQHLQPTAENAYEYFTKIATSLFESGINWGRVVALLGFGYRLALHVYQHGLTGFLGQVTRFVVDFMLHHCIARWIAQRGGWVAALNLGNGPILNVLVVLGVVLLGQFVVRRFFKS
binding result [3]: no binding
